According to a protein production outcome set (Wang et al. 2014):

Assay: label from the status in PepcDB records

Row | Sequence | protein production
1 | MTSFVGTRGRGNCGTAPGRSPSLQAHGKMGRRREPGVPEESCCSHDACCEKAAKPRVEEVATSGCADCCSAGVPVFDGLDPRYKRILWTVIAINAAMFVSEMVAGHLAGSQALKADALDFLADTVTYGLSLSVIGASLKTRATAALFKGVSLSAMAAWVFGSTVYQTLILGLPRAELMGAMSLAALAANLTSVLLLARYKDGDANVRSVWLCSRNDAVGNVIVMIAAVGVFGTGTAWPDLAVAAVMAGIFLTSSLQILRQAWAEYRGGQAAATA | failed
2 | MITKFPPQWQEKLDQVAFTHLTPIQEQAFQPIVDGKNFLGISPTGTGKTLAYVFPNLLALTPKKSQQLLILAPNTELAGQIFEVTKDWAQPLGLTAQLFISGTSQKRQIERLKKGPEILIGTPGRIFELIKLKKIKMMSVNTIVLDEYDELLGDSQYDFVQKISHYVPRDHQMVYMSATNKVDQTSLAPNTFCIDLSEQTNDAIQHFYLMVDKRERTDLLRKFTNIPHFRALVFFNSLSDLGATEERLQYNGAAAVSLASDINVKFRKTILEKFKSHQLSLLLATDLVARGIDIDNLDYVIHFDVARDKENYTHRAGRTGRMGKSGIVITFVSHPEDLKKLKKFAKVSEISLKNQQLHFIN | failed
3 | MANGRIEKIGQQLTTPSGYQVLDATGKHVTAGIVDEHSHIAINGGTNEGTDAVTAEVRIGDVINPEDVSIYRALAGGVTSAQLLHGSANPIGGQSQLIKMKWGESAEQLKFANAPASIKFALGENVKQSNWGEKFVQRFPQTRMGVKALFEETFDAALAYENALKDYDDLRSSEKKKTLAPRPSYRLQAVAEVLKQQRDVHIHSYVQSEILMFLRLAEAYRFKVQTFTHVLEGYKVASELAAHGAGASTFADWWAYKFEVYDAIPQNACLMQKQGVLTSINSDDYEMQRRLNQEAAKSMMYCGMSKEDAWNMVTIYPAKQLRVDEYVGSLTPGKMADIVLWNAEPLSIYAKVTHAWVEGKRYFDREQDQLAQQQVVTERAALIQKILSSDDNAKAGEKVTPLNEPQWHCDTHYQAWGQHHQGAK | failed
4 | MTHTRRALSTVGKGLAALRHLLPLLLCLLVLAGCAKAPYTGRSQFIMVSPQQEMALGQQESRKILSKEPVKTGTDEAQRVETVGRRIAAAARRGDFRWEFHLIGKDVANAFCLPGGKVFVYEGIFKYADTDAELATVMAHEVGHAIARHGAERMSRAMMVQMGHDAAAIALGVAGGSPAAVQAFSQAYGTGANVGLMLPFGREQEYEADRIGLMLMAQAGYDPRAALDFWRKMSSAPGKRPPEFLSTHPTGQHRIAELQARMGDALRVYRPPSGK | failed
5 | MGHHHHHHSHMPVTEKDLAEDAPWKKIQQNTFTRWCNEHLKCVNKRIGNLQTDLSDGLRLIALLEVLSQKRMYRKYHQRPTFRQMQLENVSVALEFLDRESIKLVSIDSKAIVDGNLKLILGLVWTLILHYSISMPVWEDEGDDDAKKQTPKQRLLGWIQNKIPYLPITNFNQNWQDGKALGALVDSCAPGLCPDWESWDPQKPVDNAREAMQQADDWLGVPQVITPEEIIHPDVDEHSVMTYLSQFPKAKLKPGAPLKPKL | not failed
6 | MLRIFQGRPAVTIAAVLVAASVAGCAGKAKKPTLVYEERPVELLYSTGADRLDRGNWNEAVDYFREVERQHPYSEWSRRSILMTGYAHYMGNQYAEAIGDADRFISLYPGNPSAQYAFYLKAICYFEQIVDVNRDQAATEQALAALRDVVQRYPNTEYATDARLKIDMVNDQLAGKEMAIGRWYLKNGQTLAAIGRFKAVIERHQTTSHTPEALFRLVEAYLTIGLNEEAKRNGAVLGYNFPGDRWYVDAYRLLNDNGLRPAVEPLKAGAKRNALERILSKDKEATLAPPGERKAKKGLLGPLGM | failed
7 | YNPWRNPEGALKRRNTVLNNMLVMGYLSQSQYDEEVARPLGVVSKPTLGPAKFPDFLDIVRRQLRAEYQESDLTNQGL | failed
8 | MSLGELNVATVTRRPEILLVDSQEVILQRLQQLLSPLPYTLHFARDATQALQLLASREVDLVISAAHLPQMDGPTLLARIHQQYPSTTRILLTGDPDLKLIAKAINEGEIYRYLSKPWDDQELLLALRQALEHQHSERERLRLQDEGHHHHHH | not failed
9 | MNRFLTSIVAWLRAGYPEGIPPTDSFAVLALLCRRLSHDEVKAVANELMRLGDFDQIDIGVVITHFTDELPSPEDVERVRARLAAQGWPLDDVRDREEHA | not failed
10 | MSDPYPATEAHAQRAAKSPPKSLLDRLLSLVRREPEDREGIKAILEAAHERELLDAESYAMIKGALAVSERTVADIMVPRSRMDLLDISQPLPQLLATIIETAHSRFPVYEDDRDNIIGILLAKDLLRYMLEPALDIRSLVRPAVFIPEVKRLNVLLREFRASRNHLAIVIDEHGGISGLVTMEDVLEQIVGDIEDEFDEDEEESIFPEGENQWRLTASTDISHFNATFATDLPDDEYDSVGGWLGGQLGRIPRRGDSADHDGLHIEVVRADARRALWLRVRRNAGAQPPASAAE | not failed
11 | YTDESGLSELVNAAGEKLQDLELMGQKNAVRDFFKELIADSGKVAYGESQVRANLEINSVDVLLLSEDLRAERVTTKCSVCGYENKWTRRWKPGEPAPAAGNCPKCGSSLEVTDVTDIVDEFSELADKSNAKVVFVSTDFDEGSQLMNAFGGIAAILRYNTGV | not failed
12 | MLAERRPAVTPTDGAQVLKALDAQAALLPYALGVFAVSLPLFVWVGSFAANPLWMTASFAIFAINWGVFYAAVSWIRDEPSQDLARRARVQVLCGVLWALAVMQISAFAHNAGPARETLLLLATAGAVLCAFFAAPYLPGLLIIAPLAAAGPLLAQFSSADSRHAGELTFGATALAMTLALILNRMFRRQHDLAISHEQLVVERLRVLEAAERTARSKSDIVATLSHEIRNGLTGVTHVLAAAAGRGGRAAPSREQLNAALDAAQDLIAVLNATLDSETAESGRLQVDARPFDPVRLVQDLALLDKPHAAAKGLELSVHVDPLLRERAKGAAIADALRTRQIVSNLLGNAVKYTVRGRVEVRLELRDDRIAIEVADTGPGLSTEELEQAFEPFRRVERTGAGVNGAGLGLSLSRQLARLMGGALEARSAVGVGSCFTLTLPFDLGAKDEQAEALDTAVAEASGAPRALRVLIAEDDALNAAMLRAVLEQLGHQVVHAANGRRAADLAKIAEFDLLMLDHRMPVMDGPEAASSLRQGDGPNRQTPIVAVIDGDAEEAAEFLEAGAEIVLRKPVSVAGVARALADAAALERTDPAKVAA | failed
13 | MVQTPSKPITLDEFLKLPETEPASEYIEGKIIQKPMPQGKHSAIQSECVSVINSVVKPQRIARAFLELRCTFGDHSTVPDISVFIWSRIPREENGEIANIFLIAPDWTIEILSPDQSQTKVTKNILHCLKHGTQMGWLIDPDEQTVFVYRPQQETEVFDEPDALVPVPSFASELHLSIKDLFSWLL | not failed
14 | GDGVWDWDISNGSIFFSSRCRQLLGLTAPEAIAGFQLWQTGIHPDERPTVQAELAGYLRQPEGSFVTEHRFRKGEEWIWLLGRGMVVSLDIQGRPLRMIGTYSDITERKEAEAELQLLNSHLEERVAARTAELKKAMQQISIAEKQAALARMVAGMAHELNTPIGNILLCSSQIQADVAAIAKADTDRLLSRKGLQSFLQKAAESCELLQRNSELAGDLIGRFKQIAVDQLDQP | failed
15 | MGLGRYLPYLLSAALLLLCGCERTDTHAQPAKENGEIKVAPYGSWQSPLSAADVFKQTDDIAELQSVGNAIYFAESSGRDQGKVGIKRLDGLGKVTQVVLPDFNVKSTVHEYGGAAFLGIGKSLFATKMQDQLFYRFAPNQPPLPLTPNGTRHADCVAYPKGSRIICVREDHRQGGEPKASLVTINLNFAGEGDTFVSGHDFISSPTISPDNTQLAWITWEHPYMPWDNSVLWLGELDRKGQLKNVRKVSTPEASSVAQPLFGPDGKLYVVSDISNWWNIYRVTPSYTLEPVLSKNAEFAVPDWRLGNHNYAFENATTLIASYVEGNRAALLRIHLDSELTESLAIDFAEITQVVKGEDGVYFVGAKATPEKGIYRVVGRGTELVYAPALANLNPNYVSRAINIAFATGKDQQAYGYFYGPVNPKYVPPHDTRPPLIVMLHGGPTSRASLAYRSEIQFWTSRGFAVLDLNFRGSSGFGRAYRQSLYGKWGESDVEDAVNAAKYLVAKGWVDANKLAIRGISAGGLTVMSSLAFYNVFQAGVSYEGISDVEQLAKSTHKFESGYLDQLIGPYPENTDRYRELSPLNHLDGLNEPLLIFQSLRNKIVPTSQSRQIYDALKAKGVPTAYIDYGDDSDEGRTPEHKAAGLETELAFYGQVFKFTPAGKLPPLILDNISALTP | failed
